Measurements from the supplement of paper PMC10065799, “High-throughput profiling of sequence recognition by tyrosine kinases and SH2 domains using bacterial peptide display” (eLife, 2023).

Columns and labels:
[1] = molecular target: EPHB1 (UniProt P54762); test: phosphorylation enrichment, bacterial display (enrichment ratio); higher = better substrate or ligand; peptides without Tyr show the background
[2] = molecular target: MERTK (UniProt Q12866); test: as above
[3] = molecular target: Hck (UniProt P08631); test: as above
[4] = test system: c-Src; test: as above
[5] = test system: c-Abl (mouse); test: as above
[6] = molecular target: FGFR3 (UniProt P22607); test: as above
[7] = molecular target: EPHB2 (UniProt P29323); test: as above
[8] = molecular target: Fyn (UniProt P06241); test: as above
[9] = test system: AncSZ; test: as above
[10] = molecular target: Fes (UniProt P07332); test: as above
[11] = molecular target: Jak2 (UniProt O60674); test: as above
[12] = molecular target: FGFR1 (UniProt P11362); test: as above
[13] = test system: Fer (mouse); test: as above
[14] = molecular target: c-Src SH2; test: SH2 binding enrichment of the phosphorylated peptide, bacterial display (enrichment ratio); higher = better substrate or ligand; peptides without Tyr show the background
[15] = molecular target: SHP2-C SH2; test: as above
[16] = molecular target: Grb2 SH2 (UniProt P62993); test: as above
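Throughout, for SH2 binding enrichment of the phosphorylated peptide, bacterial display: peptide library displayed on the E. coli surface as eCPX fusions, selected cells deep-sequenced, score is each peptide's frequency after selection divided by its frequency in the input.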
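Throughout, for phosphorylation enrichment, bacterial display: 11-residue human phosphosite peptides and single-mutation variants displayed on the E. coli surface, counted by deep sequencing, each peptide's frequency after selection divided by its frequency in the unselected input library; frequency after pTyr selection over input frequency; kinase dosed for 20-30% of maximal phosphorylation in three min.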

Sequence of Hck (P08631 whole entry, looked up): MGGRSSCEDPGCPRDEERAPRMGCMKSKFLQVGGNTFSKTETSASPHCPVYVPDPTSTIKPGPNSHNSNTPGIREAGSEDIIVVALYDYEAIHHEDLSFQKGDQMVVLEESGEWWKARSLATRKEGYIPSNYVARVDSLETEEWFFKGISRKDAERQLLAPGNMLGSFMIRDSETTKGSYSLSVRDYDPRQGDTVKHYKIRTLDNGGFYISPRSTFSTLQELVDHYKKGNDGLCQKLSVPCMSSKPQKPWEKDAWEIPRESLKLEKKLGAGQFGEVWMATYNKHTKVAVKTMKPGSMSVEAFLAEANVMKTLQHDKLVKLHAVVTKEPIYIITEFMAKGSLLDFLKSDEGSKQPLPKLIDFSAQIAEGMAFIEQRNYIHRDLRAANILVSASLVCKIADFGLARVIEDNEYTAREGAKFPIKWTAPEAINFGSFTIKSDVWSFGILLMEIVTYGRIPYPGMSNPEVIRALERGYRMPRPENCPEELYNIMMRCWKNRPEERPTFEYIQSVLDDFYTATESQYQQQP
Sequence of Fyn (P06241 whole entry, looked up): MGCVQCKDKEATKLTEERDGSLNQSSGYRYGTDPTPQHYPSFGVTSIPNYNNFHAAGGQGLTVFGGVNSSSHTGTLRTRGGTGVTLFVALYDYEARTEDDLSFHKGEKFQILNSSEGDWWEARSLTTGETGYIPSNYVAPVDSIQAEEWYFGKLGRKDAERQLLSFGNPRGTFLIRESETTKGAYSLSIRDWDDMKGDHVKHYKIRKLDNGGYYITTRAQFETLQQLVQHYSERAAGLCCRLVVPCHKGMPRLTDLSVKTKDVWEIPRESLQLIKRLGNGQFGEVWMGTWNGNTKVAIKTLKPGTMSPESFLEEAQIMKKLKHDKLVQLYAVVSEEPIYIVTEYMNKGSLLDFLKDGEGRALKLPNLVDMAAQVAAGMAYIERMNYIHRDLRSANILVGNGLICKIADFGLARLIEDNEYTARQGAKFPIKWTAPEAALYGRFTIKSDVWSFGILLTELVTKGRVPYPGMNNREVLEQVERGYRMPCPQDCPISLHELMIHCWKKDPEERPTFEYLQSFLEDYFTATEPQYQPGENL
Sequence of EPHB1 (P54762 whole entry, looked up): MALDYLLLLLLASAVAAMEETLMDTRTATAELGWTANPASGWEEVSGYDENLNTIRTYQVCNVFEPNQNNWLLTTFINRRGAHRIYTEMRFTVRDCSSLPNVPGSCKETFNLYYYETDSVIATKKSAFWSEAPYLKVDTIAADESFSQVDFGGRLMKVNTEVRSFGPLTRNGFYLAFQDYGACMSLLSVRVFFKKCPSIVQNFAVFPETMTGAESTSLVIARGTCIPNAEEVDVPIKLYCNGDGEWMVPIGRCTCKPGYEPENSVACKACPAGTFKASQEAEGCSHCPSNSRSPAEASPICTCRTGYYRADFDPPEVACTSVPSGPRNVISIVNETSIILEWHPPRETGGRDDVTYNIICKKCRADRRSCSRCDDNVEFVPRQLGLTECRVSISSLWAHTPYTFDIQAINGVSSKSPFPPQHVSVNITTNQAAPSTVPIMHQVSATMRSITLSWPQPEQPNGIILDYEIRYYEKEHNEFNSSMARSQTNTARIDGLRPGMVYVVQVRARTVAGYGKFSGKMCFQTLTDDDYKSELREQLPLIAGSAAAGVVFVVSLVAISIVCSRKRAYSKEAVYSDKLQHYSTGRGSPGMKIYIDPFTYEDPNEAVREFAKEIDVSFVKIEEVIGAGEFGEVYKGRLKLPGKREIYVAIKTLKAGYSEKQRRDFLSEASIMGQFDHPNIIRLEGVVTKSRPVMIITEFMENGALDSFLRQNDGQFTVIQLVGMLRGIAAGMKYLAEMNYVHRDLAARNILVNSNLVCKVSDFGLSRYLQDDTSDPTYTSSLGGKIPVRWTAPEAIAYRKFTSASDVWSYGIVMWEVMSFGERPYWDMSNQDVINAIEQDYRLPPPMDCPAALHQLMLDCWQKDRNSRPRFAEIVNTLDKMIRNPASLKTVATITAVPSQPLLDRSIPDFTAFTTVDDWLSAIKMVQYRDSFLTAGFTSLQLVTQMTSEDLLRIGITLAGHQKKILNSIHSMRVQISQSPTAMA
Sequence of Fes (P07332 whole entry, looked up): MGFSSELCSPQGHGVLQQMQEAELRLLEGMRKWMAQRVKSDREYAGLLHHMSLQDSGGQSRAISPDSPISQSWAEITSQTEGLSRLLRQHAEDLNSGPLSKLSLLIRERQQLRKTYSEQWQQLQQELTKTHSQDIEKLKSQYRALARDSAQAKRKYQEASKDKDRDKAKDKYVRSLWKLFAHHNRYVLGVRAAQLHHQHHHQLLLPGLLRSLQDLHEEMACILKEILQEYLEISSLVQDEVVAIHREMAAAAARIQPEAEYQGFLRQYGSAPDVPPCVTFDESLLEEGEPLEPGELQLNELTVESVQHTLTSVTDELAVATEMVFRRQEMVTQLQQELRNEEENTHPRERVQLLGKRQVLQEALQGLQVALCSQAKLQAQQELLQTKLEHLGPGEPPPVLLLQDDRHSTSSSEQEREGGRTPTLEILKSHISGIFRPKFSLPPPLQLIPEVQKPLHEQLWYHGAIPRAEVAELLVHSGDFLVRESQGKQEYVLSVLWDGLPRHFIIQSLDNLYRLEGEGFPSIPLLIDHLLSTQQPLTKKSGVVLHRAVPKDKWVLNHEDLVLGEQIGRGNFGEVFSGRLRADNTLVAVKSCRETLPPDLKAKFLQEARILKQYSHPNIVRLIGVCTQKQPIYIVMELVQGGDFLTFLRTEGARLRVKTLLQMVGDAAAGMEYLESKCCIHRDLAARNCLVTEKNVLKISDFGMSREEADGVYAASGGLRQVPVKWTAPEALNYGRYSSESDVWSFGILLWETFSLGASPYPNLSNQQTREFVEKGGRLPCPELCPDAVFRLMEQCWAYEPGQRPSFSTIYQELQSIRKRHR
Sequence of FGFR3 (P22607 whole entry, looked up): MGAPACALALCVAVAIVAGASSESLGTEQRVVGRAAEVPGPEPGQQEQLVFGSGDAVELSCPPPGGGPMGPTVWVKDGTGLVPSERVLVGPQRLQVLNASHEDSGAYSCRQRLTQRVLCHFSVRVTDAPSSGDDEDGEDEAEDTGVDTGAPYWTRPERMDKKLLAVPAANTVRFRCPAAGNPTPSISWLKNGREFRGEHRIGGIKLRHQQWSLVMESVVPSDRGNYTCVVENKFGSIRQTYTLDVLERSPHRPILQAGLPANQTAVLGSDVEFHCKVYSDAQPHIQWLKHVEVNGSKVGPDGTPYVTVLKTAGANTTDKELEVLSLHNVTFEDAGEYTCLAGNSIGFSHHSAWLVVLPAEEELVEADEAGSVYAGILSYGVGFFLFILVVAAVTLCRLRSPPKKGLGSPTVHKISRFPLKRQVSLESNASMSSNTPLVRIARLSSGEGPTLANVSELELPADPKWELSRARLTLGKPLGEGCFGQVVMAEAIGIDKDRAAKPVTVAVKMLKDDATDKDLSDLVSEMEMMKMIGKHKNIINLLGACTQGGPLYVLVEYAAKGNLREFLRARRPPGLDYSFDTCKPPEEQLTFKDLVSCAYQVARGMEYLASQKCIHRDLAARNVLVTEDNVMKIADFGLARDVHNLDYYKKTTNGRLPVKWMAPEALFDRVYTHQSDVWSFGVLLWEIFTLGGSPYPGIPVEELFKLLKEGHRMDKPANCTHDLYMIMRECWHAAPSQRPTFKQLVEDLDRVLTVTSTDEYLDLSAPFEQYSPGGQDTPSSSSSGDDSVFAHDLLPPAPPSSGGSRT
Sequence of EPHB2 (P29323 whole entry, looked up): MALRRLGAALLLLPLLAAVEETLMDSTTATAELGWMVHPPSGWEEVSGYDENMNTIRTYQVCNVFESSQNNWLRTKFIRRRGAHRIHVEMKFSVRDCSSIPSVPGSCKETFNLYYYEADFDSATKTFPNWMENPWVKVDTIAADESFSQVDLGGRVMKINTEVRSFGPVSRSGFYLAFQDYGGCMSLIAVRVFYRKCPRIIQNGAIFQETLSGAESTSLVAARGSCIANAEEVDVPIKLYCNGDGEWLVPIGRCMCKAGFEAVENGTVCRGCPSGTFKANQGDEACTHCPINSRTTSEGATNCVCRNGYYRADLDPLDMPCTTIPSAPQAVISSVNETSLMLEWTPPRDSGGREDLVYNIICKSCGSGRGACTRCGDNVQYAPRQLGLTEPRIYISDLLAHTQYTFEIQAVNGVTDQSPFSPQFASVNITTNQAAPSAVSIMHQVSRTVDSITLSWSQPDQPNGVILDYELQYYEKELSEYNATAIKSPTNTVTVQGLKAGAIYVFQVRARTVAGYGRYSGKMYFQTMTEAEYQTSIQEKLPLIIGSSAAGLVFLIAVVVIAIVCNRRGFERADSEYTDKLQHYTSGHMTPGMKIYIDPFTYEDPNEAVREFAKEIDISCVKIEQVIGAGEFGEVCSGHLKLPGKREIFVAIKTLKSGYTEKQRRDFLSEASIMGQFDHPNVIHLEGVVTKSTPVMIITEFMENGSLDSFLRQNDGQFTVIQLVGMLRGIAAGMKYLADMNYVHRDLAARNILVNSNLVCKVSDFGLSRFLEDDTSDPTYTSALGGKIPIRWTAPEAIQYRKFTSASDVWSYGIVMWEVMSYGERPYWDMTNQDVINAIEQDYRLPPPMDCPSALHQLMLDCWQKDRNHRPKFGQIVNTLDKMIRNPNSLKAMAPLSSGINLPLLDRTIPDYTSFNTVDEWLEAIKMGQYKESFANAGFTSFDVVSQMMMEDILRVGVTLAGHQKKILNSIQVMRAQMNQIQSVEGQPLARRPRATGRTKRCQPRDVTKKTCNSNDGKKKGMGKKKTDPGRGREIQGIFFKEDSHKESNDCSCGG

SH2 binding enrichment [14] | SH2 binding enrichment [15] | SH2 binding enrichment [16] | Sequence | phosphorylation enrichment [1] | phosphorylation enrichment [2] | phosphorylation enrichment [3] | phosphorylation enrichment [4] | phosphorylation enrichment [5] | phosphorylation enrichment [6] | phosphorylation enrichment [7] | phosphorylation enrichment [8] | phosphorylation enrichment [9] | phosphorylation enrichment [10] | phosphorylation enrichment [11] | phosphorylation enrichment [12] | phosphorylation enrichment [13]
4.5 | 1.09 | 0.929 | FVTSMYNEILI [TRPV1_Y310_M315I] | 0.684 | 1.17 | 1.14 | 0.621 | 0.686 | 0.903 | 0.714 | 0.682 | 1.16 | 1.32 | 1.01 | 0.733 | 6.66
0.488 | 0.696 | 0.786 | GAALAYGLDKS [HSPA9_Y230_A225G] | 0.337 | 0.306 | 0.402 | 0.415 | 0.487 | 0.474 | 0.515 | 0.483 | 0.529 | 0.637 | 0.493 | 0.389 | 0.411
0.556 | 0.845 | 0.786 | GDFLSYREFHL [ERBIN_Y1107_S1112L_YF] | 0.599 | 0.423 | 0.653 | 0.543 | 0.805 | 0.792 | 0.527 | 0.467 | 0.915 | 0.956 | 0.824 | 0.501 | 0.737
0.54 | 0.757 | 0.831 | GDKKAYVRLAP [RPL23A_Y137_E133D] | 0.523 | 0.638 | 0.482 | 0.449 | 0.519 | 0.497 | 0.435 | 0.43 | 0.603 | 0.58 | 0.732 | 0.535 | 0.411
0.407 | 0.539 | 0.972 | GDYLSYREFHS [ERBIN_Y1107] | 16.8 | 0.489 | 2.42 | 2.48 | 19 | 3.56 | 23.1 | 2.8 | 2.1 | 0.903 | 1.54 | 4.66 | 0.414
0.569 | 0.905 | 1.02 | GDYYRYLAEVA [YWHAG_Y133] | 3.59 | 2.63 | 1.31 | 1.93 | 1.09 | 9.01 | 3.79 | 1.39 | 2.37 | 1.01 | 5.81 | 11.5 | 0.476
0.508 | 0.576 | 0.817 | GGCQEYTGAPF [NAXD_Y85_YF] | 0.541 | 0.456 | 0.506 | 0.528 | 0.636 | 0.8 | 0.618 | 0.464 | 1.17 | 1.14 | 0.817 | 0.526 | 0.587
0.491 | 0.594 | 0.995 | GGDAVYTNGAI [RFX2_Y82] | 0.425 | 0.359 | 1.34 | 1.09 | 0.443 | 0.532 | 0.486 | 1.3 | 0.654 | 0.638 | 0.494 | 0.484 | 0.5
0.712 | 0.808 | 1.05 | GGGFGYQKTKK [DDX18_Y643] | 0.252 | 0.308 | 0.379 | 0.3 | 0.556 | 0.422 | 0.318 | 0.315 | 0.328 | 0.52 | 0.814 | 0.371 | 0.343
0.509 | 0.79 | 0.803 | GGQDVYGDFGG [Probound] | 0.718 | 0.562 | 5.41 | 5.08 | 0.939 | 0.573 | 0.883 | 8.36 | 0.748 | 0.837 | 0.905 | 0.527 | 0.498
0.617 | 1.11 | 0.875 | GGSSPYSRRLA [CDK13_Y351_P356A] | 0.363 | 0.443 | 0.425 | 0.468 | 0.567 | 0.395 | 0.326 | 0.426 | 0.626 | 0.565 | 0.512 | 0.356 | 0.344
0.448 | 0.685 | 0.76 | GGTPLYMDRQG [AGXT_Y194] | 0.465 | 0.409 | 1.26 | 0.505 | 0.499 | 0.47 | 0.501 | 0.516 | 0.606 | 0.614 | 0.513 | 0.401 | 0.431
0.393 | 0.783 | 0.871 | GGTTMYPGIAD [ACTC1_Y308] | 0.424 | 0.418 | 0.437 | 0.484 | 0.561 | 0.576 | 0.419 | 0.493 | 0.854 | 0.722 | 0.766 | 0.451 | 0.408
1.1 | 1.21 | 1.32 | GHGRFYMKEAI [PGM1_Y66_D62H] | 0.342 | 0.305 | 0.404 | 0.36 | 0.536 | 0.59 | 0.418 | 0.407 | 0.684 | 0.754 | 0.662 | 0.384 | 0.405
2.41 | 1.82 | 1.6 | GHMYAYDWISI [BEST1_Y227_L224M] | 3.06 | 7.82 | 2.87 | 1.82 | 0.739 | 6.08 | 2.54 | 1.89 | 2.18 | 4.88 | 0.798 | 8.74 | 14.7
4.11 | 1.07 | 1.1 | GHPYAYDWISI [BEST1_Y227_L224P] | 1.65 | 8.66 | 1.62 | 1.55 | 0.661 | 6.75 | 1.07 | 0.929 | 1.47 | 2.26 | 0.794 | 10.1 | 17.5
0.521 | 0.616 | 0.818 | GIVEDYRPPFF [ACVRL1_Y421_YF] | 0.497 | 0.417 | 0.413 | 0.42 | 0.701 | 0.667 | 0.498 | 0.464 | 0.825 | 0.899 | 0.814 | 0.468 | 0.443

SH2 binding enrichment [14] | SH2 binding enrichment [15] | SH2 binding enrichment [16] | Sequence | phosphorylation enrichment [1] | phosphorylation enrichment [2] | phosphorylation enrichment [3] | phosphorylation enrichment [4] | phosphorylation enrichment [5] | phosphorylation enrichment [6] | phosphorylation enrichment [7] | phosphorylation enrichment [8] | phosphorylation enrichment [9] | phosphorylation enrichment [10] | phosphorylation enrichment [11] | phosphorylation enrichment [12] | phosphorylation enrichment [13]
0.47 | 0.524 | 0.825 | GIVEDYRPPVY [ACVRL1_Y421_F425V] | 0.524 | 0.403 | 0.505 | 0.437 | 0.539 | 0.53 | 0.547 | 0.406 | 0.817 | 0.953 | 0.77 | 0.458 | 0.479
0.464 | 0.502 | 0.858 | GIVKAYYVRAR [AIPL1_Y267] | 0.398 | 0.465 | 0.396 | 0.415 | 0.558 | 0.548 | 0.47 | 0.394 | 1.03 | 0.771 | 0.706 | 0.461 | 0.407
0.742 | 0.755 | 0.906 | GKFFQYDTWKQ [IGF2_Y116] | 0.498 | 0.485 | 0.826 | 0.567 | 0.582 | 0.514 | 0.564 | 0.43 | 0.766 | 0.852 | 0.601 | 0.407 | 0.468
0.761 | 0.718 | 0.746 | GKFFQYDTWNQ [IGF2_Y116_K120N] | 0.545 | 0.588 | 0.741 | 0.872 | 0.78 | 0.639 | 0.7 | 0.51 | 1.06 | 1.07 | 0.933 | 0.643 | 0.533
0.466 | 0.624 | 0.826 | GKTQQYDCKWF [BCR_Y751_YF] | 0.596 | 0.451 | 0.425 | 0.43 | 0.748 | 0.63 | 0.563 | 0.432 | 0.848 | 1.07 | 0.927 | 0.472 | 0.463
0.493 | 0.893 | 0.674 | GLRFGYGVLGG [KRTAP20-2_Y15_YF] | 0.413 | 0.311 | 0.376 | 0.434 | 0.519 | 0.574 | 0.488 | 0.548 | 0.742 | 0.782 | 0.562 | 0.358 | 0.387
0.401 | 0.806 | 0.927 | GNHISYFQSDG [CACNA1C_Y1757_V1755I_YF] | 0.552 | 0.376 | 0.392 | 0.395 | 0.511 | 0.496 | 0.44 | 0.418 | 0.742 | 0.918 | 0.566 | 0.483 | 0.39
0.375 | 0.677 | 0.575 | GNKENYGLPQP [BUB1_Y538] | 0.489 | 0.341 | 0.342 | 0.392 | 1.26 | 0.609 | 0.533 | 0.321 | 0.634 | 0.69 | 0.532 | 0.372 | 0.353
0.381 | 0.478 | 0.756 | GNLLIYTELGK [HGD_Y166_F169L] | 3.98 | 4.86 | 5.3 | 4.74 | 2.29 | 1.19 | 2.57 | 5.68 | 1.46 | 1.43 | 1.21 | 1.29 | 0.986
16.7 | 0.658 | 0.845 | GPKFGYDEIDN [ACOX1_Y232] | 0.44 | 0.381 | 0.359 | 0.453 | 0.531 | 0.527 | 0.688 | 0.406 | 0.993 | 0.874 | 0.765 | 0.42 | 0.344
0.48 | 0.608 | 0.756 | GQKVAYGGTGD [ALDH3A1_Y305] | 0.268 | 0.412 | 0.387 | 0.371 | 0.569 | 0.416 | 0.342 | 0.349 | 0.582 | 0.558 | 0.417 | 0.354 | 0.384
0.299 | 0.548 | 0.742 | GQSKGYRPKLF [SIPA1L3_Y1376_YF] | 0.319 | 0.389 | 0.395 | 0.412 | 0.448 | 0.419 | 0.324 | 0.363 | 0.433 | 0.837 | 0.37 | 0.364 | 0.342
0.402 | 0.618 | 0.809 | GREAEYSDKHG [EPHB4_Y574] | 0.392 | 0.39 | 0.354 | 0.405 | 0.571 | 0.547 | 0.44 | 0.773 | 0.64 | 0.821 | 0.582 | 0.388 | 0.472
0.575 | 0.698 | 0.825 | GRPMDYHVSIT [OTOF_Y254_Q255H] | 0.532 | 0.414 | 0.479 | 0.4 | 0.626 | 0.577 | 0.453 | 0.456 | 0.732 | 0.923 | 0.83 | 0.453 | 0.559
0.456 | 0.656 | 0.767 | GRPMDYQVSIT [OTOF_Y254] | 0.517 | 0.416 | 0.417 | 0.449 | 0.662 | 0.51 | 0.624 | 0.403 | 0.812 | 0.775 | 0.727 | 0.473 | 0.508
0.61 | 0.762 | 0.874 | GRQGIYTENKR [GPR143_Y231_E235K] | 0.349 | 0.53 | 0.437 | 0.529 | 0.46 | 0.477 | 0.347 | 0.372 | 0.723 | 0.585 | 0.527 | 0.477 | 0.346
